A protein production outcome set (Wang et al. 2014)

Experiment: label from the status in PepcDB records
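Note: failed if final PepcDB status was selected cloned or expressed and not failed if soluble or beyond.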

| Sequence | protein production |
| --- | --- |
| MEEKANTGQVIIVLTEHLTFGTLLIPYMAEKSDDGTYQLIEQAFHASPEAISRMNEAEQQAIDIASHYTEKYLMGIYSREKTVSRFLRKLSEDPERVKNNIRPFIEKKMQEMLTLIRHHNLPLYQKQVGSKLLYAHHAYHVHPHDVEIRFTFLADETNFRYQLQCYYDGQPLSLSEQKPVIVLTSSPSALLLGMELYFFPHIESVRILPFTKKKKISVPASQIEKYIDNIVIPIARYHEITTQGLNIIEETYACEAVLSLEDTIYDEQMLRLSFRYGDQSFTPDTVTEMKKIIYRNDFGEIFFFRRDSDAEEEKLRMLTDSGLQRVSDVHFKLSPDAPEKTITEWISTYREMLQQSFLLTGNMGNTPYCLDEIRIEQSCDDEPDWFELHITVVIGNLRIPFSRFRKHILEEKREFLLPDGRMILLPEEWFSKYGNLLELGTQTETGIRLKPTFVGAVQSALEENGPKNLLFKREIRNVPVPQGLNAKLRPYQQKGFSWMVQLNKQGFGGCLADDMGLGKTLQTLTLLQYIYKPLSPDAVTAPMKPVFTETTASDSQPDKECTANNPPVREQIADAEGQFSLFSFSSEDELLPDAREIREKNRPKEDDHRQEHGKNSRKPATLIVVPTSLLHNWRREAKRFTTLAIAEYNSNTAFPKGHPEKFFNHFHLIFTTYGMMRNNIDILRSYTFEYIVLDESQNIKNNDSLTFRSVIQLQGKHRIALTGTPIENSLKDLWAQFRFLQPDLLGEESTFHKQFIIPIRQGNVRMEKRLQQIIAPFILRRSKSEVAPELPPLTEETIYCAMSEKQGESYEQEKNSLRNILLQQPENKDRYHMFSILNGILRLRQLACHPQLIFPDFDGVSGKTEQIIDTFDTLRSEGHKVLIFSSFVRHLEILAEVFRQRGWKYALLTGSTNNRPSEIAHFTEQKDVQAFLISLKAGGVGLNLTQADYVFIIDPWWNPAAESQAIARAHRIGQDKQVIAYRFITQNSIEEKILQLQEDKRRLAETFITDSEALPALSNEQWADLLK | failed |
| MLVNGQHYHLINDISGEKPVLLMLHGFTGSSETFQDSISLLKEHFSIIAPDLLGHGKTSCPKEVARYSIENICDDLASILHQLKIDSCFVLGYSMGGRVATAFAAKYKELVRGLVLVSSSPGLRDEKARASRISADNRLADTLDADGIEPFVAYWENLALFASQKNLPFALKKRIRLERLAQNPHGLAKSLRGMGTGKQPSYWENLADFTFPVLLITGNLDEKFEKIAREMKQLLPNSTHVTVQEAGHAVYLEQPNIFSSQLIYWLEGILKEEEK | failed |
| MNKAVETRLNKSRPGGWIPRDGAHIERWIRRIKHYVTQQPRALVPPIAELRDLVHANPALHAQAEAMFKEAWRHKHLTPLGQPEVRSFEEFLGLLNGIMTTAPEAYQDIPSHEPSGLIGFPINALLDWPMATQSGYHFFANALINQQFKKILDYWAQFLQSPASRYVLNEPVSRLDQETLVVPWLGKVAKAEMVKVANEAVGEGPNPTPGSFEQIFECEPAAEYHGFSCWDDFFTRRFRAGVRPVSAPTDDGVIVNACESAPLQVRKEVSRSDQFWLKGQPYSLDNMLDFDDLAPRFEGGTVYQAFLSALSYHRWHSPVSGTIRKVRIVNGTYYLENQFEGFADPQGADPSAPNNSQPFLTSVATRALIFIEADNPKIGLMCVVPVGMAEVSSCEITVQAGDRVQKGDPLGMFHFGGSTHCLLFRPGVRLEFDFHGQIPGLDATNMRLNTAIARVK | failed |
| MNNQYKLIEEFNNAEFDKSLKWFSPPKDWEVNSNKSKLIVKPDKETDFWQKTHYEFQVDNGHFLYYELNGDFRLITKVKSKPANRYDQAGLMVRFSKDTWLKTSVEYIPDDNSKLGVVVTKNGYSDWSSQEFFGDLNSLYYRITRRGNNYYVDYSLDGDLWKQIRMVYLFEEKDCMKVGIYACSPQGDGYEAEFEFIKIENIDDNTKVY | failed |
| MSLTPRNATVAVIGAGDYIGAEIAKKFAAEGFTVFAGRRNGEKLAPLVAEIEAAGGRIVARSLDARNEDEVTAFLNAADAHAPLEVTIFNVGANVNFPILETTDRVFRKVWEMACWAGFVSGRESARLMLAHGQGKIFFTGATASLRGGSGFAAFASAKFGLRAVAQSMARELMPKNIHVAHLIIDSGVDTAWVRERREQMFGKDALANPDLLMPPAAVAGAYWQLYQQPKSAWTFEMEIRPYGEGHHHHHH | not failed |
| RHQPEINQTPGEAQALFVWRDNQDHRDDIERHYLKMLTSARREVIIANAYFFPGYRLLHAMRNAARRGVRVKLIVQGEPDIPIVKFGAHLLYHYLVKGGVQIYEYRRRPLHGKVALADDHWATVGSSNLDPLSLSLNLEANLIIHDRVFNQTLRDNLNGLIARDCQRIDKTMLPKRNWWRLGVSVMAFHFLRHFPAWVGWLP | failed |
| MKVLGISCSPRPGQTTDRLVQEVLNNIEAPTEFVSLSGRRIGPCLGCLGCVADNVCKVRDDMGELRPLIVEADALVIGAPNYFGMLNGLAHCFLERLYQFRHQEGGALHGKLGVAVGVGSAMPDSAVRDIEKFFSFSRIEPVGNVTAIGPASCFNCGHGEECREGAIHRVFGPGTKITADLTPNLSKQPDSLTAARTLGEKLTQRLKQG | failed |
| MSDALINGLAGAGGGIIAQLLTYPLQTVNTRQQTERDLKREKRKLGTIEHMCQVVKQEGWERLYGGLAPSLAGTAASQGVYYYFYQVFRNRAEATALARKKKGLGDGSVGMFASLLVAAFAGSVNVLMTNPIWVIVTRMQTHRKMTKDQTAAPESPSSNAEALVAVEPRPYGTFNTIREVYDEAGITGFWKGVIPTLIMVSNPSMQFMLYETMLTKLKKKRALKGSNNVTALETFLLGAVAKLGATVTTYPLLVVKSRLQAKQVTTGDKRQQYKGTLDAILKMIRYEGLYGFYKGMSTKIVQSVLAAAVLFMIKEELVKGAKLLLSNATSS | failed |
| MLSYDLNERLLTAVQSGDFEQALGCIMQGAQASYVSPTCGRTAVGTAAILGDAELLELLLQSCEEPELNVFHQSNTDSLEIERTPEGMEKLEWVDEFENSAENGAGSGEEDSQLYQYYAKTFETTGEFISSQCCVSCREHDPHLYDADVATPLHYAAYWGHEECVRILLEHNAPINVLNNDGYAPLHLGAGFAGVTELLIKHGALVNAKTLSDGKTALHMAIESKCAESARLLLQTNININDTDDDGETPLMAAIACSMLDVAEELVKRGARINIQDKQNHTALQYAVRGRHTQMAKLLLERGARRLASQHLLHLAVESNVKELVELLLQYGESLSVWNLKNFTPIMLAIHRGRHEMLEYLLNVAEEQRKLGLYSDVHDEGLVLFAVQQNFWVKEFSRILRVLLAKSPSARNDFYDSCAPTIVCGLIYCHTPLSRAINLHRLEVAEFLIHEGCNLAQICREHVVNELRSNCTPTRLAFARLLCNAGFQFPHKHRPLPKDWPPARLEFEREMCLLGTQPRSLQSLARLEIRRSLLRCLQTRPEVQERYLPTQERSSLGRIVDEFAIPATLKRYLSDFDELPPVRGMEPVDIPVVKWTESWD | failed |
| MTISIDRPAPVSSWRTYRRLLAFAKPYRLLLVAALIAALIEAAGTTGFLALMKPITDETFIYKNAEVSRWLPVQIILLFVVRGVAGYITDMAMGKSARSIARDLRIKVMAKYLRLPGSRFDSEPVPSMLIRLGSDSDQVAQAAVDAVKVMIQQSLQVIGALALMLWHSWQVTLTILVLAPVLAWVMDKVARRYRRISHSIQESGAQLLQAADQTLSSHQEVKIYGAQQTEMERYGALANRNLRLAMKVESTRGISTATVQMIGAIGLSALLFVAGAQALAGRLTAGDFVVLMTSMLTIIPGLKQLTNVQNMVQRGLASAERLFSVLDSPDEPDQGTVPLTRAKGLIEFRDVTARYPGQVNPALADVSFVAQPGTVTAIVGRSGSGKSSLIKLIPRFYEAEAGQILLDGHPVQAYALADLRRQIALVGQQVMLFDGSIADNVAFGEMRNADAGKLERAILGANAMEFVAQLPEGLQSHVGTKGGRLSGGQRQRLAIARAMLKDAPVLILDEATAALDNESERLVQDALHKLMPDRTTLVIAHRLSTIEHADQVLVMDQGRIVERGTHHQLLAQGGLYSHLHGMQFRERQA | failed |
| MKSKDSPIINEQFWDALFFNGTMPWDRSQTPNELKHYLKRIADKTHSVFIPGCGAAYEVSHFVDCGHDVIAMDYSAEAVNLAKSQLGQHQDKVMLGDVFNADFSREFDVIYERAFLAALPREIWGDYFAMIERLLPSNGLLVGYFVISDDYRSRFPPFCLRSGEIEQKLEANFHLIESTPVTDSVDVFKGKEQWMVWQKK | failed |
| MSKTERDKIKVEMEIDPHLSWQEKLAVEEQEKLSPRLVYEIIRRDGVEELSRPTSTLIFSGITAGLVMSFSFVFKAVIASYLPIDAVWTDLITNIGYTIGFLIAILGHLQLFTENTITTVIPLFKPFSLDKLKAVARLWSIVILTNIFGTALSSLFFLTTDLFSPEVDHALDEIAHHVASFTAWENFLKGVLSGLLIAALVWMLPSVNNKILLIFMITYLIGLGDFTHVVVGSVEVAYLVWQGQTSLSEYFFQFLVPTTLGNIIGGTGIFTLLIYGQVNQELEE | failed |
| PQALEFEYMRWIATGARAFIDAHQDASKLRITHLGGGACTMARYFADVYPQSRNTVVELDAELARLSREWFDIPRAPRVKIRVDDARMVAESFTPASRDVIIRDVFAGAITPQNFTTVEFFEHCHRGLAPGGLYVANCGDHSDLRGAKSELAGMMEVFEHVAVIADPPMLKGRRYGNIILMGSDTEFF | failed |
| MLDPARSYDLIGDVHGCALTLEHLLDRLGYHKQAGVWRHPSRMAVFLGDIIDRGPRIRESLHIVHDMVEAGQALCIMGNHEFNALGWSTPAAEGSGKQFVREHTPRHARLIHETLTQFEQHPGDWHDFLQWFYELPLFVDAGRFRVVHACWDAGLIAPLRQQYPNGCIDREFLQSAAVPDSFACTAFDRLLRGTDMRLPHGLTMTSGDGLTRAFFRTKFWEDDPQTYGDIVFQPDALPEPVARTPLSPAEKNSLLRYGAEEPMLFVGHYWRSGKPAPIRPNLACLDYSAVLYGKLAAYRLDQETRLDPNKFVWVDVERPEVVRLEHHHHHH | failed |
| MSDDDDIQYIKRQRTLHYGSLEESERKRQNAAASGAAATTTSGTTASSGAGTTTTGTGGQLEDIDSDEDYEESTKKTSNAKQAGAPPPTAATLANKIDDDYFDLEMEMERDKVALLEEFERKKRARQINVSTDDTEIKSNLRQLNEPICYFGEGPAERRRRLKELLAGLGENAINKRQYEDEERKQQQREQDQATWYHEGPDSLRIARLWLADYSLPRAKDRLVRAREALEVPSAARAGRMVEMQKKLQSLAPLCSQVGDTRPVSSAAFSEDSSLLLTSSWSGLCKLWSVPDCELKQTLRGHASYVGGVALRPGVKADEENVVAMASGGHDGAVKLWGFNNEESIADITGHMPHRVSKVAFHPSGRFLATACYDSSWRLWDLEQKTEVLHQEGHAKPVHCLSYHSDGSVLVTGGLDAFGRVWDLRTGRCIMFLEGHLGAVFGVDFSPNGFHIATGSQDNTCKIWDLRRRQPVYTIPAHTNLISDVKYQQECGSFLVTCSYDSTTKIWSNKTWQPLKTLQGHDNKVISVDIAPNSQYIATTSFDRTFKLWSPDS | failed |
| MTTPSASTRAVLEEACLSVGLDTTNAQPIRIAENAVWRLPGGVVVRVARPGQSAAAAREVQVARWLTAEGVPAVRALDLPQPVAASGHPVTFWQELPPHEIGTVTDVVVLLKQLHALPKPDLPLGELDPFVRLVERIDAAITISDDDQLWLKHRLEDLKQQWASRPKGLPECVVHGDAWVGNVARTEAGPMLLDFERASFGPPEWDLVSTAVKLTTTGAVSAEEYAAFCETYGVDVTEWEGYELLANARELRMVTYAAQHAASRPEWRREAQYRIDCLRGRAGAPPWRWKGII | failed |
